Assay results published in EP1053001B1.
Non-standard residues stand in square brackets, D forms with d. No end group written: not given here. *: point of attachment. Aib = CC(C)(N)C(=O)O; For = O=C*

Biological target: T1, calcitonin receptors (human T47D / MCF7 breast carcinoma cells) (human), P30988
T1 chain: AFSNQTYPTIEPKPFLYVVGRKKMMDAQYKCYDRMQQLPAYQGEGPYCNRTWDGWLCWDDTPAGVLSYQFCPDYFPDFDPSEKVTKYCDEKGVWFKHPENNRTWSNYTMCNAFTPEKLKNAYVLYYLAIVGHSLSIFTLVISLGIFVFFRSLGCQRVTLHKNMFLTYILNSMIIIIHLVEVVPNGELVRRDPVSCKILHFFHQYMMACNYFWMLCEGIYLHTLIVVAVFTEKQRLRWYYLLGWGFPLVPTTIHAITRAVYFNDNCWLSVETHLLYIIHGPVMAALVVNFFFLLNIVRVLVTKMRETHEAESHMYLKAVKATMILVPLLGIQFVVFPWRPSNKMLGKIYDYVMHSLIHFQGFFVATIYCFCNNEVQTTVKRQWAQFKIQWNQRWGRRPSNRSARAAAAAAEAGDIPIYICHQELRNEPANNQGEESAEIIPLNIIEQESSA
Experiment: radioligand competition vs 125I-salmon calcitonin, human T47D cell membranes

For VL[Aib]K(For)LSQEL[Aib]K(For)LQTYPRTNTGSNTY-NH2 [Compound 8], the IC50 was 93 nM.
